Measured values published in patent JP2017086068A (dated 2017).

Molecular target: HA2融合ペプチドFGAIAG (Influenza A virus (A/VN/1194/04))
Assay: Pepscan peptide mapping, linear and cyclised peptides of HA A/VN/1194/04

B1: FI6変異体2 (antibody, V domains shown)
VH: QVQLVQSGGGVVQPGRSLRLSCVASGFTFSTYAMHWVRQAPGRGLEWVAVISYDGNYKYYADSVKGRFSISRDNSNNTLHLEMNTLRTEDTALYYCAKDSQLRSLLYFEWLSQGYFDPWGQGTLVTVTS
VL: DIQMTQSPDSLAVSLGARATINCKSSQSVTFNYKNYLAWYQQKPGQPPKVLIYWASARESGVPDRFSGSGSGTDFTLTISSLQAEDVAVYYCQQHYRTPPTFGQGTKVEIK
- binding result: binds
